In article PMC3113324, “AKAP5 and AKAP12 Form Homo-oligomers” (Journal of Molecular Signaling, 2011):

B1: HA-AKAP12 (1-938) (domain or fragment, human, UniProt Q02952 1-938, looked up)
chain: MGAGSSTEQRSPEQPPEGSSTPAEPEPSGGGPSAEAAPDTTADPAIAASDPATKLLQKNGQLSTINGVAEQDELSLQEGDLNGQKGALNGQGALNSQEEEEVIVTEVGQRDSEDVSKRDSDKEMATKSAVVHDITDDGQEETPEIIEQIPSSESNLEELTQPTESQANDIGFKKVFKFVGFKFTVKKDKTEKPDTVQLLTVKKDEGEGAAGAGDHKDPSLGAGEAASKESEPKQSTEKPEETLKREQSHAEISPPAESGQAVEECKEEGEEKQEKEPSKSAESPTSPVTSETGSTFKKFFTQGWAGWRKKTSFRKPKEDEVEASEKKKEQEPEKVDTEEDGKAEVASEKLTASEQAHPQEPAESAHEPRLSAEYEKVELPSEEQVSGSQGPSEEKPAPLATEVFDEKIEVHQEEVVAEVHVSTVEERTEEQKTEVEETAGSVPAEELVEMDAEPQEAEPAKELVKLKETCVSGEDPTQGADLSPDEKVLSKPPEGVVSEVEMLSSQERMKVQGSPLKKLFTSTGLKKLSGKKQKGKRGGGDEESGEHTQVPADSPDSQEEQKGESSASSPEEPEEITCLEKGLAEVQQDGEAEEGATSDGEKKREGVTPWASFKKMVTPKKRVRRPSESDKEDELDKVKSATLSSTESTASEMQEEMKGSVEEPKPEEPKRKVDTSVSWEALICVGSSKKRARRGSSSDEEGGPKAMGGDHQKADEAGKDKETGTDGILAGSQEHDPGQGSSSPEQAGSPTEGEGVSTWESFKRLVTPRKKSKSKLEEKSEDSIAGSGVEHSTPDTEPGKEESWVSIKKFIPGRRKKRPDGKQEQAPVEDAGPTGANEDDSDVPAVVPLSEYDAVEREKMEAQQAQKSAEQPEQKAATEVSKELSESQVHMMAAAVADGTRAATIIEERSPSWISASVTEPLEQVEAEAALLTEEVLE
notes: AKAP12, human, N-terminal fragment, residues 1-938; also called AKAP12 N-terminal (1-938) fragment; source: HEK293, transfected (pcDNA3.1), in whole-cell lysate
B2: HA-AKAP12 (840-1782) (domain or fragment, human, UniProt Q02952 840-1782, looked up)
chain: DSDVPAVVPLSEYDAVEREKMEAQQAQKSAEQPEQKAATEVSKELSESQVHMMAAAVADGTRAATIIEERSPSWISASVTEPLEQVEAEAALLTEEVLEREVIAEEEPPTVTEPLPENREARGDTVVSEAELTPEAVTAAETAGPLGAEEGTEASAAEETTEMVSAVSQLTDSPDTTEEATPVQEVEGGVPDIEEQERRTQEVLQAVAEKVKEESQLPGTGGPEDVLQPVQRAEAERPEEQAEASGLKKETDVVLKVDAQEAKTEPFTQGKVVGQTTPESFEKAPQVTESIESSELVTTCQAETLAGVKSQEMVMEQAIPPDSVETPTDSETDGSTPVADFDAPGTTQKDEIVEIHEENEVASGTQSGGTEAEAVPAQKERPPAPSSFVFQEETKEQSKMEDTLEHTDKEVSVETVSILSKTEGTQEADQYADEKTKDVPFFEGLEGSIDTGITVSREKVTEVALKGEGTEEAECKKDDALELQSHAKSPPSPVEREMVVQVEREKTEAEPTHVNEEKLEHETAVTVSEEVSKQLLQTVNVPIIDGAKEVSSLEGSPPPCLGQEEAVCTKIQVQSSEASFTLTAAAEEEKVLGETANILETGETLEPAGAHLVLEEKSSEKNEDFAAHPGEDAVPTGPDCQAKSTPVIVSATTKKGLSSDLEGEKTTSLKWKSDEVDEQVACQEVKVSVAIEDLEPENGILELETKSSKLVQNIIQTAVDQFVRTEETATEMLTSELQTQAHVIKADSQDAGQETEKEGEEPQASAQDETPITSAKEESESTAVGQAHSDISKDMSEASEKTMTVEVEGSTVNDQQLEEVVLPSEEEGGGAGTKSVPEDDGHALLAERIEKSLVEPKEDEKGDDVDDPENQNSALADTDASGGLTKESPDTNGPKQKEKEDAQEVELQEGKVHSESDKAITPQAQEELQKQERESAKSELTES
notes: AKAP12, human, C-terminal fragment, residues 840-1782; also called AKAP12 C-terminal (840-1782) fragment; source: HEK293, transfected (pcDNA3.1), in whole-cell lysate
B3: HA-tagged full-length AKAP12 (1-1782) (natural protein, human, UniProt Q02952 1-1782, looked up)
chain: MGAGSSTEQRSPEQPPEGSSTPAEPEPSGGGPSAEAAPDTTADPAIAASDPATKLLQKNGQLSTINGVAEQDELSLQEGDLNGQKGALNGQGALNSQEEEEVIVTEVGQRDSEDVSKRDSDKEMATKSAVVHDITDDGQEETPEIIEQIPSSESNLEELTQPTESQANDIGFKKVFKFVGFKFTVKKDKTEKPDTVQLLTVKKDEGEGAAGAGDHKDPSLGAGEAASKESEPKQSTEKPEETLKREQSHAEISPPAESGQAVEECKEEGEEKQEKEPSKSAESPTSPVTSETGSTFKKFFTQGWAGWRKKTSFRKPKEDEVEASEKKKEQEPEKVDTEEDGKAEVASEKLTASEQAHPQEPAESAHEPRLSAEYEKVELPSEEQVSGSQGPSEEKPAPLATEVFDEKIEVHQEEVVAEVHVSTVEERTEEQKTEVEETAGSVPAEELVEMDAEPQEAEPAKELVKLKETCVSGEDPTQGADLSPDEKVLSKPPEGVVSEVEMLSSQERMKVQGSPLKKLFTSTGLKKLSGKKQKGKRGGGDEESGEHTQVPADSPDSQEEQKGESSASSPEEPEEITCLEKGLAEVQQDGEAEEGATSDGEKKREGVTPWASFKKMVTPKKRVRRPSESDKEDELDKVKSATLSSTESTASEMQEEMKGSVEEPKPEEPKRKVDTSVSWEALICVGSSKKRARRGSSSDEEGGPKAMGGDHQKADEAGKDKETGTDGILAGSQEHDPGQGSSSPEQAGSPTEGEGVSTWESFKRLVTPRKKSKSKLEEKSEDSIAGSGVEHSTPDTEPGKEESWVSIKKFIPGRRKKRPDGKQEQAPVEDAGPTGANEDDSDVPAVVPLSEYDAVEREKMEAQQAQKSAEQPEQKAATEVSKELSESQVHMMAAAVADGTRAATIIEERSPSWISASVTEPLEQVEAEAALLTEEVLEREVIAEEEPPTVTEPLPENREARGDTVVSEAELTPEAVTAAETAGPLGAEEGTEASAAEETTEMVSAVSQLTDSPDTTEEATPVQEVEGGVPDIEEQERRTQEVLQAVAEKVKEESQLPGTGGPEDVLQPVQRAEAERPEEQAEASGLKKETDVVLKVDAQEAKTEPFTQGKVVGQTTPESFEKAPQVTESIESSELVTTCQAETLAGVKSQEMVMEQAIPPDSVETPTDSETDGSTPVADFDAPGTTQKDEIVEIHEENEVASGTQSGGTEAEAVPAQKERPPAPSSFVFQEETKEQSKMEDTLEHTDKEVSVETVSILSKTEGTQEADQYADEKTKDVPFFEGLEGSIDTGITVSREKVTEVALKGEGTEEAECKKDDALELQSHAKSPPSPVEREMVVQVEREKTEAEPTHVNEEKLEHETAVTVSEEVSKQLLQTVNVPIIDGAKEVSSLEGSPPPCLGQEEAVCTKIQVQSSEASFTLTAAAEEEKVLGETANILETGETLEPAGAHLVLEEKSSEKNEDFAAHPGEDAVPTGPDCQAKSTPVIVSATTKKGLSSDLEGEKTTSLKWKSDEVDEQVACQEVKVSVAIEDLEPENGILELETKSSKLVQNIIQTAVDQFVRTEETATEMLTSELQTQAHVIKADSQDAGQETEKEGEEPQASAQDETPITSAKEESESTAVGQAHSDISKDMSEASEKTMTVEVEGSTVNDQQLEEVVLPSEEEGGGAGTKSVPEDDGHALLAERIEKSLVEPKEDEKGDDVDDPENQNSALADTDASGGLTKESPDTNGPKQKEKEDAQEVELQEGKVHSESDKAITPQAQEELQKQERESAKSELTES
notes: AKAP12, human, full length (1-1782); also called HA-AKAP12; HA-tagged AKAP12; source: HEK293, transfected (pcDNA3.1), in whole-cell lysate
B4: full-length endogenous AKAP12 (natural protein, human (endogenous in HEK293), UniProt Q02952 1-1782, looked up)
chain: MGAGSSTEQRSPEQPPEGSSTPAEPEPSGGGPSAEAAPDTTADPAIAASDPATKLLQKNGQLSTINGVAEQDELSLQEGDLNGQKGALNGQGALNSQEEEEVIVTEVGQRDSEDVSKRDSDKEMATKSAVVHDITDDGQEETPEIIEQIPSSESNLEELTQPTESQANDIGFKKVFKFVGFKFTVKKDKTEKPDTVQLLTVKKDEGEGAAGAGDHKDPSLGAGEAASKESEPKQSTEKPEETLKREQSHAEISPPAESGQAVEECKEEGEEKQEKEPSKSAESPTSPVTSETGSTFKKFFTQGWAGWRKKTSFRKPKEDEVEASEKKKEQEPEKVDTEEDGKAEVASEKLTASEQAHPQEPAESAHEPRLSAEYEKVELPSEEQVSGSQGPSEEKPAPLATEVFDEKIEVHQEEVVAEVHVSTVEERTEEQKTEVEETAGSVPAEELVEMDAEPQEAEPAKELVKLKETCVSGEDPTQGADLSPDEKVLSKPPEGVVSEVEMLSSQERMKVQGSPLKKLFTSTGLKKLSGKKQKGKRGGGDEESGEHTQVPADSPDSQEEQKGESSASSPEEPEEITCLEKGLAEVQQDGEAEEGATSDGEKKREGVTPWASFKKMVTPKKRVRRPSESDKEDELDKVKSATLSSTESTASEMQEEMKGSVEEPKPEEPKRKVDTSVSWEALICVGSSKKRARRGSSSDEEGGPKAMGGDHQKADEAGKDKETGTDGILAGSQEHDPGQGSSSPEQAGSPTEGEGVSTWESFKRLVTPRKKSKSKLEEKSEDSIAGSGVEHSTPDTEPGKEESWVSIKKFIPGRRKKRPDGKQEQAPVEDAGPTGANEDDSDVPAVVPLSEYDAVEREKMEAQQAQKSAEQPEQKAATEVSKELSESQVHMMAAAVADGTRAATIIEERSPSWISASVTEPLEQVEAEAALLTEEVLEREVIAEEEPPTVTEPLPENREARGDTVVSEAELTPEAVTAAETAGPLGAEEGTEASAAEETTEMVSAVSQLTDSPDTTEEATPVQEVEGGVPDIEEQERRTQEVLQAVAEKVKEESQLPGTGGPEDVLQPVQRAEAERPEEQAEASGLKKETDVVLKVDAQEAKTEPFTQGKVVGQTTPESFEKAPQVTESIESSELVTTCQAETLAGVKSQEMVMEQAIPPDSVETPTDSETDGSTPVADFDAPGTTQKDEIVEIHEENEVASGTQSGGTEAEAVPAQKERPPAPSSFVFQEETKEQSKMEDTLEHTDKEVSVETVSILSKTEGTQEADQYADEKTKDVPFFEGLEGSIDTGITVSREKVTEVALKGEGTEEAECKKDDALELQSHAKSPPSPVEREMVVQVEREKTEAEPTHVNEEKLEHETAVTVSEEVSKQLLQTVNVPIIDGAKEVSSLEGSPPPCLGQEEAVCTKIQVQSSEASFTLTAAAEEEKVLGETANILETGETLEPAGAHLVLEEKSSEKNEDFAAHPGEDAVPTGPDCQAKSTPVIVSATTKKGLSSDLEGEKTTSLKWKSDEVDEQVACQEVKVSVAIEDLEPENGILELETKSSKLVQNIIQTAVDQFVRTEETATEMLTSELQTQAHVIKADSQDAGQETEKEGEEPQASAQDETPITSAKEESESTAVGQAHSDISKDMSEASEKTMTVEVEGSTVNDQQLEEVVLPSEEEGGGAGTKSVPEDDGHALLAERIEKSLVEPKEDEKGDDVDDPENQNSALADTDASGGLTKESPDTNGPKQKEKEDAQEVELQEGKVHSESDKAITPQAQEELQKQERESAKSELTES
notes: AKAP12, endogenous in HEK293 cells, detected with anti-AKAP12 antibody; also called native AKAP12; endogenously expressed AKAP12; source: endogenous, HEK293 whole-cell lysate

Target: the molecule itself
Assay: SDS-PAGE (SDS-resistant oligomers); whole-cell lysates of HEK293 cells on SDS-PAGE without urea; immunoblot with anti-HA or anti-AKAP12; cells also treated with isoproterenol (10 uM, 0, 5, 30 min), KT5720, PD98059 or Rolipram (45 min)

Stoichiometry N, 2:
B1
B2
B3
B4
